The subject of data set [1] is Nc1ncnc2c1ncn2[C@@H]1O[C@H](COP(=O)(O)OP(=O)(O)OP(=O)(O)O)[C@@H](O)[C@H]1O. In words: purified protein. Conditions: FMN co-substrate, MgCl2, Tris-HCl pH 7.5, 37°C.
In data set [2] the test system is Cc1cc2nc3c(=O)[nH]c(=O)nc-3n(C[C@H](O)[C@H](O)[C@H](O)COP(=O)(O)O)c2cc1C. In words: purified protein. The class given is biochemical, Homo sapiens. Particulars: 100 μM ATP, 5 mM MgCl2, 50 mM Tris-HCl pH 7.5, 37°C.

As usually defined, the Km is the substrate concentration at which the rate is half of its maximum.

Consider “6His-tagged human FADS isoform 2 (FADS2), WT (Homo sapiens; R530C)”, for which the figures for the Km in data set [1] and in data set [2] were 4.63 ± 1.00 µM and 0.39 ± 0.07 µM, respectively.
In the same order, the values of “6His-tagged human FADS isoform 2 (FADS2), WT (Homo sapiens)” are 8.10 ± 1.37 µM and 0.32 ± 0.10 µM.
Take “6His-tagged human FADS isoform 2 (FADS2), WT (Homo sapiens; DEL495-495)”: the Km in data set [1] worked out at 8.02 ± 2.23 µM; in data set [2] it was 0.98 ± 0.23 µM.

For the origin of these results see PMC4908180.
